From patent US20040077845A1, “Modifier” (priority 2001, published 2004)

What was measured:
[1] = solubility of lyophilized modification products in water or PBS; assay type: physicochemical; conditions: dissolved in water or PBS
Description: The modification products of bovine serum albumin and human immunoglobulin G separated using HPLC as described in Example 2 were adequately dialyzed against water and lyophilized. The lyophilized modification products and lyophilized unmodified counterparts for both of the proteins were similarly dissolved in water or PBS.

bovine serum albumin = molecular target: T1, bovine serum albumin (Bos taurus, UniProt P02769); experiment: galactose content of the protein modified with agarooligosaccharides (hydrolysis, 2-aminopyridine labelling, HPLC); assay type: biochemical; conditions: reacted with agarooligosaccharides in PBS pH 7.2, 37° C., 24 hours
T1 construct: purchased Sigma A0281
T1 sequence (P02769 25-607): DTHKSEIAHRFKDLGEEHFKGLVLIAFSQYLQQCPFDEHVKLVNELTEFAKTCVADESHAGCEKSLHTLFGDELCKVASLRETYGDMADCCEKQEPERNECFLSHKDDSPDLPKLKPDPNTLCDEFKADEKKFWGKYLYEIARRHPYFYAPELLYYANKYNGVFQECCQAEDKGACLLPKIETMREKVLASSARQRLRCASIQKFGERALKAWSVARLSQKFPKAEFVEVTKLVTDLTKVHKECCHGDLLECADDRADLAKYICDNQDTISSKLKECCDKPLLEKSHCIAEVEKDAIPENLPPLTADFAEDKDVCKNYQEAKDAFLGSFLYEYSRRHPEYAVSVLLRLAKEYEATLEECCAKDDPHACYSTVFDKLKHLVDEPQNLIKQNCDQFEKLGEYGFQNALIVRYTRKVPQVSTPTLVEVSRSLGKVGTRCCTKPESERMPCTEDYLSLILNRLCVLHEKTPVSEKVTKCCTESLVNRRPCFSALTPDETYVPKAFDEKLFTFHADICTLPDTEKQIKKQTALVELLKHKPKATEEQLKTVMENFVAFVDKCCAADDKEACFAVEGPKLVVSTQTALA
Method: A solution containing the agarooligosaccharides as described in Example 1-(1) at a concentration of 100 mg/ml and a solution containing bovine serum albumin (Sigma, A0281) at a concentration of 11.1 mg/ml in PBS (pH 7.2) were mixed at a ratio of 1:9. The mixture was reacted at 37° C. for 24 hours to obtain a modification product of bovine serum albumin.
In order to confirm that the agarooligosaccharides were attached to the proteins, the modification products of the proteins were dialyzed to remove free agarooligosaccharides, and only high molecular weight fractions were collected by HPLC. HPLC was carried out as follows.
The protein concentrations in the separated fractions were determined by measuring the absorbances at 280 nm, and fractions containing the proteins were collected. As a control, unmodified counterparts for both of the proteins were also separated under the same conditions. Next, the galactose contents in the collected protein fractions were measured. […] The reducing ends of the resulting monosaccharides were fluorescence-labeled with 2-aminopyridine using GlycoTAG and GlycoTAG Reagent kit (both from Takara Shuzo). The sugar compositions were analyzed according to a conventional method by HPLC (Agric. Biol. Chem. 55, 283-284 (1991)) to determine the galactose contents in the respective protein fractions. […]

Substance: modification product of bovine serum albumin: bovine serum albumin reacted with the agarooligosaccharides in PBS at 37° C. for 24 hours
- solubility compared with unmodified counterparts [1]: superior to that of the unmodified counterparts
- molecules of galactose attached to one molecule of the modification product (bovine serum albumin): eight
